{
  "source": "paper PMC11985968",
  "about": "(Nature Communications, 2025)",
  "binders": {"B1": {"name": "Mycobacterium tuberculosis UvrB (enzyme)", "chain": "VRAGGHFEVVSPHAPAGDQPAAIDELERRINAGERDVVLLGATGTGKSATTAWLIERLQRPTLVMAPNKTLAAQLANELREMLPHNAVEYFVSYYDYYQPEAYIAQTDTYIEKDSSINDDVERLRHSATSALLSRRDVVVVASVSCIYGLGTPQSYLDRSVELKVGEEVPRDGLLRLLVDVQYTRNDMSFTRGSFRVRGDTVEIIPSYEELAVRIEFFGDEIEALYYLHPLTGEVIRQVDSLRIFPATHYVAGPERMAHAVSAIEEELAERLAELESQGKLLEAQRLRMRTNYDIEMMRQVGFCSGIENYSRHIDGRGPGTPPATLLDYFPEDFLLVIDESHVTVPQIGGMYEGDISRKRNLVEYGFRLPSACDNRPLTWEEFADRIGQTVYLSATPGPYELSQTGGEFVEQVIRPTGLVDPKVVVKPTKGQIDDLIGEIRTRADADQRVLVTTLTKKMAEDLTDYLLEMGIRVRYLHSEVDTLRRVELLRQLRLGDYDVLVGINLLREGLDLPEVSLVAILDADKEGFLRSSRSLIQTIGRAARNVSGEVHMYADKITDSMREAIDETERRRAKQIAYNEANGIDPQPLRKKIADILDQVYREADDTAVVEVGGSGRNASRGRRAQGEPGRAVSAGVFEGRDTSAMPRAELADLIKDLTAQMMAAARDLQFELAARFRDEIADLKRELRGMDAAGLK"}},
  "molecular_target": "T1, Mycobacterium tuberculosis UvrA (Mycobacterium tuberculosis, UniProt P9WQK7 1-972)",
  "T1 sequence": "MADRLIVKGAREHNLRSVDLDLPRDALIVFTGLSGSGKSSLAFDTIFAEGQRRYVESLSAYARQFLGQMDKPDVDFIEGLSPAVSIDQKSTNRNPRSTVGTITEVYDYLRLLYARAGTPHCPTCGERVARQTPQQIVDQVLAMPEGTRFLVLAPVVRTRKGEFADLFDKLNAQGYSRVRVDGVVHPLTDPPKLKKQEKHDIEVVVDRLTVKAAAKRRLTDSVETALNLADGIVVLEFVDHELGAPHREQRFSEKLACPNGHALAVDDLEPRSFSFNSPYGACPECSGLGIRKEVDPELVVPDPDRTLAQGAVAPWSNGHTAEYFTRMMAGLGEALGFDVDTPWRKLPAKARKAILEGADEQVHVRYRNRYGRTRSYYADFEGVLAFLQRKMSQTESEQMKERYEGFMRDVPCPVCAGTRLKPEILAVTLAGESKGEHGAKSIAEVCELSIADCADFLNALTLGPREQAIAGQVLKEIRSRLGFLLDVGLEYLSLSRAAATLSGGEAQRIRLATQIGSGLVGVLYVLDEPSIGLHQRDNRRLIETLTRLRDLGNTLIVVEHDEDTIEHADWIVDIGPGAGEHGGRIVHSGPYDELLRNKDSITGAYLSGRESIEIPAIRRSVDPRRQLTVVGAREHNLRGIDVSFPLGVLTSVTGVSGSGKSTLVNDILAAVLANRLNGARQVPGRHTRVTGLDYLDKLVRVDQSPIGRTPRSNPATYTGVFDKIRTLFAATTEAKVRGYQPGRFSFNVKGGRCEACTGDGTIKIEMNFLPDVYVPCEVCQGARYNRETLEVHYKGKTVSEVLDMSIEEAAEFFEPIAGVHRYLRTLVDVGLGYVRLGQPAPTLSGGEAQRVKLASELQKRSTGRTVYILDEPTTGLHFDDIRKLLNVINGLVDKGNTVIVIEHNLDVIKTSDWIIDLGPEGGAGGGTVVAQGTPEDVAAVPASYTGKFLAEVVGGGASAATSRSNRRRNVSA",
  "assay": "cryo-EM structure",
  "note": "Several values for one entry are separate records, joined by “and”; a condition that tells them apart may be missing. Equal values may be shown once.",
  "data": [
    {"binder": "B1", "values": [
      {"measurement": "stoichiometry N", "result": "1 UvrB per UvrA dimer and 2 UvrB per UvrA dimer"}
    ]}
  ]
}
